Test results reported in paper PMC10567702, “A concerted ATPase cycle of the protein transporter AAA-ATPase Bcs1” (Nature Communications, 2023).

Substrate: Nc1ncnc2c1ncn2[C@@H]1O[C@H](COP(=O)(O)OP(=O)(O)OP(=O)(O)O)[C@@H](O)[C@H]1O
Assay: purified protein
Details: conformational turnover per ring (printed as Vmax, maximum turnover rate), reconstituted membranes, 10 mM HEPES pH 7.5, 200 mM NaCl, 2 mM MgCl2, ambient temperature

B1: Bcs1 (mBcs1) (Mus musculus) (protein)
chain: MPFSDFVLALKDNPYFGAGFGLVGVGTALAMARKGAQLGLVAFRRHYMITLEVPARDRSYAWLLSWLTRHSTRTQHLSVETSYLQHESGRISTKFEFIPSPGNHFIWYQGKWIRVERNRDMQMVDLQTGTPWESVTFTALGTDRKVFFNILEEARALALQQEEGKTVMYTAVGSEWRTFGYPRRRRPLDSVVLQQGLADRIVKDIREFIDNPKWYIDRGIPYRRGYLLYGPPGCGKSSFITALAGELEHSICLLSLTDSSLSDDRLNHLLSVAPQQSLVLLEDVDAAFLSRDLAVENPIKYQGLGRLTFSGLLNALDGVASTEARIVFMTTNYIDRLDPALIRPGRVDLKEYVGYCSHWQLTQMFQRFYPGQAPSLAENFAEHVLKATSEISPAQVQGYFMLYKNDPMGAVHNIESLR
Km: 0.2 µM | kcat: ~0.17 s⁻¹
